Reference: publication PMC6131064

B1: BktB (Cupriavidus necator H16; M158A) (protein)
chain: MTREVVVVSGVRTAIGTFGGSLKDVAPAELGALVVREALARAQVSGDDVGHVVFGNVIQTEPRDMYLGRVAAVNGGVTINAPALTVNRLCGSGLQAIVSAAQTILLGDTDVAIGGGAESMSRAPYLAPAARWGARMGDAGLVDMMLGALHDPFHRIHAGVTAENVAKEYDISRAQQDEAALESHRRASAAIKAGYFKDQIVPVVSKGRKGDVTFDTDEHVRHDATIDDMTKLRPVFVKENGTVTAGNASGLNDAAAAVVMMERAEAERRGLKPLARLVSYGHAGVDPKAMGIGPVPATKIALERAGLQVSDLDVIEANEAFAAQACAVTKALGLDPAKVNPNGSGISLGHPIGATGALITVKALHELNRVQGRYALVTMCIGGGQGIAAIFERI
B2: BktB (Cupriavidus necator H16) (protein)
chain: MTREVVVVSGVRTAIGTFGGSLKDVAPAELGALVVREALARAQVSGDDVGHVVFGNVIQTEPRDMYLGRVAAVNGGVTINAPALTVNRLCGSGLQAIVSAAQTILLGDTDVAIGGGAESMSRAPYLAPAARWGARMGDAGLVDMMLGALHDPFHRIHMGVTAENVAKEYDISRAQQDEAALESHRRASAAIKAGYFKDQIVPVVSKGRKGDVTFDTDEHVRHDATIDDMTKLRPVFVKENGTVTAGNASGLNDAAAAVVMMERAEAERRGLKPLARLVSYGHAGVDPKAMGIGPVPATKIALERAGLQVSDLDVIEANEAFAAQACAVTKALGLDPAKVNPNGSGISLGHPIGATGALITVKALHELNRVQGRYALVTMCIGGGQGIAAIFERI

Columns and labels:
[1] = substrate: CCCC(=O)CC(=O)SCCNC(=O)CCNC(=O)[C@H](O)C(C)(C)COP(=O)(O)OP(=O)(O)OC[C@H]1O[C@@H](n2cnc3c(N)ncnc32)[C@H](O)[C@@H]1OP(=O)(O)O; assay: thiolysis, decrease in A303 of Mg-keto-acyl-CoA complex, Michaelis-Menten fit; assay type: biochemical, Cupriavidus necator; conditions: C6 thiolysis, 200 μM CoASH, 10 mM MgCl2, 100 mM Tris pH 7.0
[2] = substrate: CC(=O)CC(=O)SCCNC(=O)CCNC(=O)[C@H](O)C(C)(C)COP(=O)(O)OP(=O)(O)OC[C@H]1O[C@@H](n2cnc3c(N)ncnc32)[C@H](O)[C@@H]1OP(=O)(O)O; assay: as above; assay type: biochemical, Cupriavidus necator; conditions: C4 thiolysis, 200 μM CoASH, 10 mM MgCl2, 100 mM Tris pH 7.0

Protein	Km [1] [µM]	kcat [1] [s⁻¹]	kcat/Km [1] [M⁻¹ s⁻¹]	Km [2] [µM]	kcat [2] [s⁻¹]	kcat/Km [2] [M⁻¹ s⁻¹]
B1	17	16.7	982000	14.1	4.63	328000
B2	15.2	4.06	267000	17.5	148	8.45e+06
